# B1: mammalian catalase (Bos taurus) (protein)
# chain: ADNRDPASDQMKHWKEQRAAQKPDVLTTGGGNPVGDKLNSLTVGPRGPLLVQDVVFTDEMAHFDRERIPERVVHAKGAGAFGYFEVTHDITRYSKAKVFEHIGKRTPIAVRFSTVAGESGSADTVRDPRGFAVKFYTEDGNWDLVGNNTPIFFIRDALLFPSFIHSQKRNPQTHLKDPDMVWDFWSLRPESLHQVSFLFSDRGIPDGHRHMNGYGSHTFKLVNANGEAVYCKFHYKTDQGIKNLSVEDAARLAHEDPDYGLRDLFNAIATGNYPSWTLYIQVMTFSEAEIFPFNPFDLTKVWPHGDYPLIPVGKLVLNRNPVNYFAEVEQLAFDPSNMPPGIEPSPDKMLQGRLFAYPDTHRHRLGPNYLQIPVNCPYRARVANYQRDGPMCMMDNQGGAPNYYPNSFSAPEHQPSALEHRTHFSGDVQRFNSANDDNVTQVRTFYLKVLNEEQRKRLCENIAGHLKDAQLFIQKKAVKNFSDVHPEYGSRIQALLDKYNEEKPKNAVHTYVQHGSHLSAREKANL
# notes: purified catalases obtained from a variety of sources including enzyme from mouse and bovine liver; purchased Sigma Chemical Co., St. Louis, Mo; host or cells: liver tissue (mouse and bovine named)
# Substrate: CC(=O)N1c2ccc(O)cc2Oc2cc(O)ccc21
# Experiment: Catalase-dependent oxidation of AMPLEX-RED to resorufin in the absence of hydrogen peroxide (Lineweaver-Burke enzyme kinetics)
# Assay type: biochemical, bovine
# Settings: other: Lineweaver-Burke analysis, catalase 1 mg/ml, 50 mM phosphate buffer pH 7.4, room temperature, no hydrogen peroxide
# Protocol: Reactions were carried out in buffer consisting of 50 mM phosphate buffer, pH 7.4 and 1.0 mg/ml of the catalase at room temperature (22° C.) in a reaction volume of 0.1 ml. […] Standard reaction mixtures contain 20 nmoles of the substrate. Detection of the fluorescent product resorufin was measured using an HTS 7000 Plus Bio Assay Reader (Perkin Elmer, Beaconsfield, Buckinghamsire, UK) using a 540 nm excitation filter and a 595 nm emission filter.
protein,measurement,value
B1,Km,244 µM
same,Vmax,4.74e-05 M/s

# From patent US7015022B2, “Mammalian catalase-dependent oxidation processes and methods for stimulating oxidative activities” (University of Medicine & Dentistry of New Jersey, priority 2002, dated 2006)
